This is an account of results in article PMC5130228.

For this assay, the target named is GST-tagged Cdc42, nucleotide-free (human) (UniProt P60953). Put plainly: pull-down.
UniProt P60953, sequence (P60953 whole entry): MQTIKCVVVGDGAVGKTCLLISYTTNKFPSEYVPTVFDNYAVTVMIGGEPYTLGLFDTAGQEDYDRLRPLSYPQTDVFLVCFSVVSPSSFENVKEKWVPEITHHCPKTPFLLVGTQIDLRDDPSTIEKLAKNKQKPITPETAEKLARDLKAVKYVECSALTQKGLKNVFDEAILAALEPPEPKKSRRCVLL

The substance “MBP-Map residues 37–203 (from UniProt P0AE18 37-203) (domain or fragment)” registered a stoichiometry N of 1.

The term stoichiometry N denotes the number of molecules, sites or subunits per partner or assembly.
